Results published in PMC12505970.

Biological target: FLAG-AuxB^W86A (S. aureus) (S. aureus)
Test: co-IP; FLAG-tagged bait from S. aureus membranes solubilised in 1% DDM (PBS pH 7.4, NaCl), α-FLAG M2 magnetic beads at 4°C, washes with decreasing DDM, elution with 3×FLAG peptide; Coomassie-stained gel, bands identified by LC-MS

PknB (endogenous, S. aureus) (from UniProt A0A0H2XGG5 1-664) (natural protein)
ratio of PknB pulled down, AuxB^W86A against wild type (densitometry): 4.2
ratio of PknB pulled down, AuxB^W86A against wild type (peptide counts of PknB in the total eluate): 5
